Assay: protease stability score; higher = more stable; yeast display proteolysis, trypsin and chymotrypsin;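 further: log10 excess protease needed over predicted unfolded state with 0 meaning unfolded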

Row | Sequence | protease stability score
1 | DEEENQELAEKFVRAIQEGDPDQITDLLDENAKATVGDRTYHGRSQIADYIHEMLKKADHFEVQSVDVQGNHIVIHVQMDINGKQVHMIIKMELSNGKVKHLEIEHK | 1.75
2 | DEEENTKVMERFLDAVKRGNEDDLHELADKDVRLTVGDKEYHGREEIMEYLHEWRKKVDHIDFDSYTVRGNTVEVHFQVHDNGQNEDVVVQVEVHNGRVKTVRYRHK | 1.72
3 | DEEEQDKVRKNIHHNNFDHLVQMADPNAHVKIGDKRIHGREELRKYQEKLKKQADHFSIDDMKVEGNKFKVKNNFKVNGQSFEHDYEATVQNGRLKSATVDARDEEDKKKLNEQMS | 0.451
4 | DEEEQEKQAHDFARVFNTGDEEKFKRLMPPDARFRYGDKEYHGMDDLLRMLLEMHKRADHLTLVDVDAHGNHLTIRIKVTVNGSDVTVDITITVDNGRLKSVVVDPRQWQKLRN | 0.066
5 | DEEEQERAMEKLDHAIEKGDPDDAVELLDENADAVIGDKRYHGREAATTFMHELRKQIDHIHIRDMQIDNGRAHIEVDARHNGQERKINVVFVFHNGRATSMENRSE | 1.02
6 | DEEEQHKRAREYMQMFEDNDEKNLMHMADENARLVVGDKTYRGKEELSKQVREQKKRVDHNQVHSVRLHNGRVVIDVTLHHNGHREKRIIRVQLRNGRIKSIVYESG | 0.037
7 | DEEEQHKTATKILSDFHTGNPDDMRENADEDVTAQVGDKTYTGREEFHKAVKTIVDRVDHLEIKSFDFHNGQLEANFVININGKNEKKKLVMRVENGRVKHMKIDDG | -0.221
8 | DEEEQHKVAKKLNEAFQQGDPDRLKQLVDKDARAEVGDTTYHGSQDIREAMQHIKDRVDKIEVKSFSVRNGKVTLSINMEVNGRKVILTVEARVDNGHVEYMRIKYTNEEDREVMDQ | 0.95
9 | DEEEQKKRAKKQADAMRQGDTDELVKMLRDDVRVKVGDKEVHGREDLKKWAREIKKEVDHIQIRQVQVHNGRIDFHIVVNHNGKNKEVVLVVRVRNGQATDFKLTRK | 0.051
10 | DEEEQKNRAKNAADAFQTGDPDQMVEMVDKDVRVQVGDKRYHGREVARTVLDEMQQHIDHIHVKNYNVSGNTVEIRIKANINGRDVEINIHIEMHNGRVKEVKFNPKVADAAKR | 0.25
11 | DEEEQKVFEKVQDAIRDGDEDTVKKLMDENAKVTIGDKDLHGSDNIARHVHKLHKDMRISIDIKHIDVTGDKIRVHARVEVDKNGKPKHYDVDFTARAKNGKVKTLNYREDS | 0.694
12 | DEEEQMHQANQNLRDAFRTNDPDTWRTLVDENARVRIGDKHVSGREEVKELMEDIAREADHLELRVQSMTVRNGELHVHFTLRADVNGQKREIQVVVVLVVRNGRARISRVEQT | 1.15
13 | DEEEQNKIAETAAKAVASGDEKRLVDLADKHVKVHYGDKDLRGKEAADTLAHDLKRQVDNIKVDTVHAHNGRANADVEVRVNGKKVRYQVQVVVTNGTIDRVQLDPDMVRDHES | 0.101
14 | DEEEQQDHAHTLKDALTYGNEQEFRHMADENARINYGEFDYHGREQFQDVIRRIMEQADHVRVDHVQVHGEHVDIRLKVKFNGQTQRWVIIVRFHNGRIKHLSADTQ | 0.499
15 | DEEEQQKNAETADRNVKTGNWEEIKKMVDKDARVKIGDTTLHGREDVSREFKRWREDADHVEMKRVSASNGRAVVEVEYTVNGRKKKFTMIMEMHNGRIKHFRNERS | 0.251
16 | DEEEQQKVADKIVEVLKSGNPDEMMKLADENVRAQVGDKTYHGREELKKWMKEVRDRVDRIRVETWEVHNGTVNIIVRMDVDGQTLTLTITANIHNGRIKQIVIEYRDDDELRKAQK | 0.729
17 | DEEEQRKAAHQYRKGDPDEAHHMFDENATVEIGNFHVQGREQVREAFEHMKRRADHREVDDMKIQGDKVQVDFQIVVNGQRVKATLDAKVKNGRAQSVRVEFRDEEDRTRAERWFK | 0.042
18 | DEEEQRKTAEDIAQVLRTNNPDTMNKLADKNAKASVGDKTYHGRKELSKWIEEQRRRVDHVDIKRFSVDGNEIIIIVILNHNGQNTRVVMVARVKNGRIQSLWRKSK | -0.176
19 | DEEERAKNFMKQLIDVAQRGDKENAKRLFDENARVEVGDKTYRGRRRVATFLMELSERADHMEMRIQSFDISGDKFDLVLKVERHHNGRQQSFQLKVVATVRNGNLVIVHVRMG | 2.49
20 | DEEERLRTILKLFEEALKHNDEDRLRKLADKDVRMRVGDKEYRGKEKFADFMRKLRTKADKVRIQIKQVNIQGNHNTMDITLVFNVNGNNNRFKVNFVFDIRGDSLKLKSATVK | 1.32
21 | DEEERRKAHELVKHNDWDKLMKNAPPDVTARIGDRTVHGMEEQVRIEHNMLRRVDENQLHSVDNSGNQLVVTLHVQINGRRFKFTVKIVIHNGQVTTVKVQARDEKEKRKLTELMG | 0.566
22 | DEEERRRLAKRVIDAMNTGDPDQVVEQIDPNARVEIGDKVYHGRDKAKKAAEERKRQADHVKLKSLEVHGNKVHARLIFNRNGENRTVLLRIKVSNGKALEIRFDHQ | 0.552
23 | DEEERSKLAERLVKAVQNNDEDSLLDNIDKNARVVVGEKTYHGRENARHAMQQFDEDVDHLQVRTFEVHGEHIRIQFEVNINGHTHTVVLDAEVKNGKLTDVKFDPDDMRKATS | 0.14
24 | DEEESDRLKELFRVMRTGDHKRAENMLDPNARFKVGDKKFEGRHEWQKDIKKTKEESHADIKIKDVHFDNGRVDVTLEMVVLHNGRPKKFRVKFVATIQGEKVKEAHITESQ | -0.094
25 | DEEEVEEMVDQALTAIRTGDEDTFAHQFDENARMEVGDTTLHGRDEIRKEMKKFRDRADHIRIQDYKVKGNKIVIVFVARFDGRHAQITIVWVFSNGRVKHASINPNQVQEFRK | 0.279
26 | DEEEVERIAKKLWKIMETGDEDEARKMVPPDVQARVGDKHISGREQYAKWVREVVKRVDSFRIKSLDAKGDKVNIVFVVHHNGKVEQHHATLVFHNGKLVYRTVKTG | 0.433

Row | Sequence | protease stability score
27 | DEEEVERVAKTAMEAMKKGNEEELKKLLKEGVEYIMGDNKVHGPEEIQKMVQLVLRVGMRIEFKELRVEGDTATTNVDYQVGDKKVTVQAHAELKGGRIDRVQIDFSDEAKKHVKHG | 1.17
28 | DEEEVKDLDRRLQEAMKTNDPDQMQRLVDENVTASYGDKEVTGREEFKKNNRELLKRVDHVNIHDVTVSGEEMVLDASVKHDGREHRIRVRAVVRDGRIKSLKIHDG | 0.494
29 | DEEEVKKFKEFLDDEKKGNEERAKKLADPNVNVRVGNRQVDGSDNLQKEIRTQKEQARFDMKVDHVEAHNGRIHLEFKLTVEVDGRPKSDTATADAVVTNGHITSLTVQMSEDQVREMDK | -0.238
30 | DEEEVKKQLEKLVKMLVKGNKDEIKKFLDPDVEYKVVDEDFQGQQVAEHAYKKIKKVGARMEVKEVRVEGDTAKATYEFTAGGTTVRAEIEAEVHGGRVKHWQVDLDDTAKELIKKG | 0.266
31 | DEEEVKQAIDRWEQGDPDQLKELVDENAHMVIGDKRLHGRETFEKMIKNLMDQADHITIESVEVQGDKAVMDVVANFNGKTVRYEVEIRIQNGQIKYLQINVTNEHDEHRFDQWLG | 1.16
32 | DEEEVKRQLDQVAKALLHGDEKQAKDLADPNVSANYGDKKLHGRENFSKWVKKFRHQIDHLELKDIRVNGDRLVIEVQANVNGQDVDVVFNLKLHNGKVKHMSVEYRDEQAKRELKK | 0.49
33 | DEEEVNKALERIRQVLEDGNPDENMKLMDKDVRVEIGDKTWHGRDEAHKAMRELNENVDHFQFDRLHHEGDRAKIDVHLEDNGKKDRVTFEFKIENGRIQHARVQTS | -0.335
34 | DEEEVQKILKTMNELLKHNDFDSLARQADPNAEFHVGDKRVHGREQVQTMLQDLRERIDHVEIRSMTAQGDKFKLDFLENVNGRRTRVTAHADVHNGRIKSVEYRTS | -0.619
35 | DEEEVRELAERFAENLERGDFHKVANQADPNARMQIGDTRYHGREELQRFLKELMERVDHLQIRSVKVRGNHVTIRMHVHYNGKSVDMHMTFHAKNGKIKHVEFNPKDFDKARR | 0.813
36 | DEEEVRKVLERLQKAVEKGNADEIAKLLKDDGEFVLIDERYKGQEDAKQVIKELQDKGFEFHTEEIQVKGGTAEVKTVWRVGDRELHLKVRYVVRGDKVDQVHAQWSKDAKEDLKKG | 0.691
37 | DEEEVRRIAHEFLKAVERGDEKRVRQLADKDVRAVVGDKRIHGKKDLAKLVKTLRDRADQFKVRDLEVQGNHVEVDLVMIVNGQSVDMSINIVVHNGTIHHMEIRVTDEDRMREVNS | -0.053
38 | DEEEVSRILKKVLTAVRKNDPDTLMRLADKNARFHYGDRTYRGREQARRWMEDVRTHADHARINSFTVTGNKARADIRFDINGEERRVDMVIVVHNGKIHDLVVEDR | 1.3
39 | DEEEVTKVVKKLRENDRDSQRDLFDKDVRVKIGDKNVHGREQAVTFWDRFLNSVDRYHVDSVEIDGDQIKIDARAVVNGRKVRYVVVYTVRNGRIKEASVHFTNEDEEKEFEKNVG | 1.28
40 | DEEEWKELNKEISRIDQHGDERDLARLVDENAKIQIGDKTIRGREDLEKQFDRLRDRFDHIQVQHVENQGDKIRVEVVQRHNGRDETHVKTVKLENGRIKHMEMQHK | -0.186
41 | DEEFAKTVVQMFRNWVHGDPSDMTRMLDENAHVVIGDTTLRGRDDVSRYVNELHDHMRFHVDRLSEENRPGRAVVKAQNNNVHNGEPTTNRAVVEVNVKNGKAQDIQYNSDK | -0.36
42 | DEEFEQNAKEWLTAIKENDPDQVRDLVDEDVRFNVGNKKVHGRERWKHLVETENKELRVEYESIDVKVNGDKAEFNATVTVEVNGKPAHFHVNMKMQAHNGRIKHVSQNMSHEDQEKFRK | -0.118
43 | DEEFLKRLVKILRTGDPDKLVNNFDKNARLEYGDKTVEGKNRIKKFMKDLHDRVDHFDIESVTLEPNHLDFTMKAQINGRDVKVRVRVEVHNGKIKHATYKYTNEDQERNMKHVKS | 0.561
44 | DEEFLRLIEEFWRAVKQNDEERLKHLLDENAKVKVGDKRLRGHEQVAKSIVDDQREMRIEMRIHKVEVDGNKVDVTYVVVFNVNGRPVSDSVRVIFRAKNGRIQMIEVRVDPDSAREQKS | 1.37
45 | DEEFNKEVKKMFDNLEKGNEEEYLRMLDENAKAQYGDHDVRGREELKKELHRQRKEIRVKYQSVDIRMHNGELSVRFRAEVVVNGRPHTVERTQSAKVQNGRVQSMKLKIDEEQKERLEG | -0.251
46 | DEEFNKVLEEALHAMHKGDPDKLNKNLDEDAKIKYGDKTVHGREDATKLLETIVKNARIQIDSFRVTSRGEKAVADVRLRYRINGKPIDVKMIIYAKNDNGRIKEVEYKIDPDELRKVEG | 1.28
47 | DEEFQTEAEKMFTNQRNNNEDHLKDQFDKDAKVQVGDKEFHGTERYEETFRTQMEHMRYDIDSFTARVHGEDLDVDVSFQFESNGKPDRNRAKIIATYHNGRIKHLRVDQDQ | 0.073
48 | DEEFRHKVAKALQSNNEHQLHELMDKDAKMTIGDKTVHGREEIHRVLRRLREQADHWHVSRFKIHNGKIVADVQVHINGQTYHMTITAFARGDRIERLEYTVRDEDLLRKIQRWLG | 1.97
49 | DEEFRHQVKQFLRAETRGNEETLKEQMDKDATFEVGDRVINGHEKYASDQHERRKEIRVEIKSMEVDAQGNTADYEIDFVEHFDGKPHRRKVRASIRVHNGRVKEIVEKDSQ | -0.184
50 | DEEFVRTVVKAHEENDEKKFNDLMDKDVKVDIGNKELRGRDQARKQLHHLRDKIDHYHVKSVTFKGNRIQIKAEFQVDGRRISAIYQQDVHNGHITSFRVSVTDPRDKHKLDEIVG | 0.151
51 | DEEHAEELMKRWMEVVKKGDKDTVKELYKPNGTWRNVDEEHQGVEQVQKMMKKIQDVGVEFQVRKAKVEGDRVTVVYDVRAGDVEVTFTVQMDVDGGRVELVQVKVDEDAKKAVKTG | 0.034
